Literature values as cited in paper PMC3585250.

Molecular target: integrin αvβ3 (Homo sapiens) (UniProt P06756)
Chain of UniProt P06756 (P06756 31-1048, chain 1 of 2): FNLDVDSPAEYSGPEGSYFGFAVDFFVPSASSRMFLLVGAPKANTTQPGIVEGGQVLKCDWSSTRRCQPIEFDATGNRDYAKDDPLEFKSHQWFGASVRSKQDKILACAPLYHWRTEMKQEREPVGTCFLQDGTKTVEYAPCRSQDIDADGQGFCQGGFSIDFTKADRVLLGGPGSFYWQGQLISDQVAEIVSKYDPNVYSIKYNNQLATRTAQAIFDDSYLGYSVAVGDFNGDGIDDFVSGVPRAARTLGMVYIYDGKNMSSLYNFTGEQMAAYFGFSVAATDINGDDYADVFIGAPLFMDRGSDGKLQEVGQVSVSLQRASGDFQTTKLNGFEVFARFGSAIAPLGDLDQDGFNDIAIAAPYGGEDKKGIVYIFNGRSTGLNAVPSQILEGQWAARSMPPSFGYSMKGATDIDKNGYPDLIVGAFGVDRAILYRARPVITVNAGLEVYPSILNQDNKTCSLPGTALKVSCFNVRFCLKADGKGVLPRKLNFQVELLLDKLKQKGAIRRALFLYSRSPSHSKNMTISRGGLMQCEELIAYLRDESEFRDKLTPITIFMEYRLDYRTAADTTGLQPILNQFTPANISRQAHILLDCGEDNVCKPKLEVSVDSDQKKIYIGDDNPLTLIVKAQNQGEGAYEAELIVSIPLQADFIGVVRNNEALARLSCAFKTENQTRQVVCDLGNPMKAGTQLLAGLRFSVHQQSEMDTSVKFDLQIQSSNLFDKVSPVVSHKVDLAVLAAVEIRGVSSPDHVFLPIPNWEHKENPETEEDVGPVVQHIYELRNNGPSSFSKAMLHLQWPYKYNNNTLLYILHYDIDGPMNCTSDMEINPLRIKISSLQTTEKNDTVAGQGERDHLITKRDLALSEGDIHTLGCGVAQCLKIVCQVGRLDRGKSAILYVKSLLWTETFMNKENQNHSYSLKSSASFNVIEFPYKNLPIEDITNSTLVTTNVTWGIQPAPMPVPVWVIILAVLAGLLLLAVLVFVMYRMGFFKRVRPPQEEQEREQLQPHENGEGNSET
Chain of UniProt P06756 (P05106 27-788, chain 2 of 2, further chain): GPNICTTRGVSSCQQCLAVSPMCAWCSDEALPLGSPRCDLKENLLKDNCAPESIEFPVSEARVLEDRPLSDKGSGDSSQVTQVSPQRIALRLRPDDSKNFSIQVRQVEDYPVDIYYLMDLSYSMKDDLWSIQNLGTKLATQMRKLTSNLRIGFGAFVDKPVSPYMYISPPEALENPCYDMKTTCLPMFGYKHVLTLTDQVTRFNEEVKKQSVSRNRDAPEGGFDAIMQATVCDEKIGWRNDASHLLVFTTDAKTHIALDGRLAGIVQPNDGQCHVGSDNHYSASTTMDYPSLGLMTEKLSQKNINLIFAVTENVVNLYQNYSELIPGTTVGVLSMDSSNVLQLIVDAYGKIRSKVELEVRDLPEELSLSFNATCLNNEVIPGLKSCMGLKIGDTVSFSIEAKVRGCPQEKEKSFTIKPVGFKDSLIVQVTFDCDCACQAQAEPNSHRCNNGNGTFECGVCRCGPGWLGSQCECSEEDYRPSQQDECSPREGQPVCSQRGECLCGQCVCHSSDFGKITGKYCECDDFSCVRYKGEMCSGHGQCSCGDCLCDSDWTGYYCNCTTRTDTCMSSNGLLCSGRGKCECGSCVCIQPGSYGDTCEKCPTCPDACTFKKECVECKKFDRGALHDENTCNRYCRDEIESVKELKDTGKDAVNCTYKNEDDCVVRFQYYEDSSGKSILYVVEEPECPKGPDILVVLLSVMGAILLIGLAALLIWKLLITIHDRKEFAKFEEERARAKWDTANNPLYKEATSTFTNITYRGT

For FGF1 (from UniProt P05230), the Kd is given as 1 µM.
